Measurements taken from the supplement of paper PMC11780869.

System: Bacillus subtilis
Test: cleaved RNA product abundance (RNA/gDNA barcode ratio) relative to median wild-type variant (ratio to wild type); higher = more accumulation of the downstream cleavage product
Method in brief: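 In LB at 37°C, B. subtilis cultures went from OD600 0.0003 to 0.3. Their chromosomes held barcoded reporter mRNAs, truncated aprE or tetM, with RNase Y cleavage-site windows mutagenized via oligos at a 9% error rate. Cleaved RNA, chosen by gel, was reverse transcribed and barcode-sequenced alongside genomic DNA barcodes with UMI collapsing, giving a per-construct RNA:gDNA ratio scaled to the median construct with the unmutated site. This scaled ratio is termed cleaved product abundance.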

[1] = experiment (reporter, strain, medium): exp 4a: truncated aprE reporter, strain BJT201 with 2% xylose (RNase J1 expressed), cleavage site: cggR-gapA (positions -7 to +36 mutated)
[2] = experiment (reporter, strain, medium): exp 8a: truncated aprE reporter, strain BJT201 with 2% xylose (RNase J1 expressed), cleavage site: glnRA (positions -5 to +31 mutated)
[3] = experiment (reporter, strain, medium): exp 2b: truncated aprE reporter, strain BJT200, cleavage site: cggR-gapA (positions -7 to +36 mutated)
[4] = experiment (reporter, strain, medium): exp 6: tetM reporter, strain 168, cleavage site: cggR-gapA (positions -7 to +36 mutated)

| Sequence | cleaved RNA product abundance [1] | cleaved RNA product abundance [2] | other results |
| --- | --- | --- | --- |
| ACAGACGAAGGAGCCGCAAAGAAATTATTAAGGGATGAATAATAACTCAATATAAATATCTCTCACTTATTTAAA | 0.168 |  |  |
| ACAGACGAAGGAGCCGCAAAGAAGTTATTAAGGGAAGAATAATCCCTCCATATAAATATCTCTCACTTATTTAAA | 0.202 |  |  |
| ACAGACGAAGGAGCCGCAAAGAAGTTATTAAGTGATGAATAATCCCTCAATATAAACATCTCTCACTTATTTAAA | 0.116 |  |  |
| ACAGACGAAGGAGCCGCAACGAAGTTATTAAAGGATGAATAATCCCTCAATATAAATATCTCTCACTTATTTAAA | 0.213 |  |  |
| CGACATGTCCCGCTTCTTTCATTAATCCGTTAGCAACTGTTTTGCTATAAACATTTACGTTTTAAGAGGAGGAAT |  | 1.32 |  |
| ACAGACGAAGGAGCCGCAAAGAAGTTAATAAAGGATGAATAATCCCTCAATATAAATATCTCTCACTTATTTAAA | 0.215 |  | cleaved RNA product abundance [3]: 0.143 |
| ACAGACGAAGGAGCCGCAAACAAGTTATTAAGGGATGAATAATCCCTCAATATAAATATCTCTCACTTATTTAAA | 0.738 |  | cleaved RNA product abundance [3]: 0.78; cleaved RNA product abundance [4]: 0.707 |
| CGACATGTCCCGCTTCTTTCATTAATCCGTTAACAACTGTTTTGCTATATACATTTCCCTTTTAAGAGGAGGAAT |  | 0.155 |  |
| ACAGACGAAGGAGCCGCAAAGAACTTATTAAGGGAAGAATAATCCCTCAATATAAATATCTCTCACTTATTTAAA | 0.235 |  |  |
| ACAGACGAAGGAGCCGCAAATAAGTTATTAAGGGATGAATAATCCCTCAATAAAAATATCTCTCACTTATTTAAA | 0.143 |  |  |
| ACAGACGAAGGAGCCGCAAAGAAATTATTAAGGGATGAATAATGCCTCAATATAAATATCTCTCACTTATTTAAA | 0.132 |  | cleaved RNA product abundance [3]: 0.172 |
| CGACATGTCCCGCTTCTTTCATTAATCCGTTAGCAACTGTGTTGCTATATACATTTACCTTTTAAGAGGAGGAAT |  | 0.358 |  |
| ACAGACGAAGGAGCCGCAAAGAAGTAATTAAGGGATGAATAAACCCTCAATATAAATATCTCTCACTTATTTAAA | 0.198 |  | cleaved RNA product abundance [3]: 0.166 |
| CGACATGTCCCGCTTCTTTCATTAATCCGTTACCAACTGTTTTGCTACATACATTTACCTTTTAAGAGGAGGAAT |  | 0.326 |  |
| CGACATGTCCCGCTTCTTTCATTAATCCTTTAGCAACTGTTTTACTATATACATTTACCTTTTAAGAGGAGGAAT |  | 0.513 |  |
| CGACATGTCCCGCTTCTTTCATTATTCCGTTAGCAACTCTTTTGCTATATACATTTACCTTTTAAGAGGAGGAAT |  | 2.3 |  |
| ACAGACGAAGGAGCCGCAAAGAAGTTATTAAGGGAAGAATAATCCCTCAATATAAAGATCTCTCACTTATTTAAA | 0.495 |  |  |
| ACAGACGAAGGAGCCGCAAAGTATTTATTAAGGGATGAATAATCCCTCAATATAAATATCTCTCACTTATTTAAA | 0.594 |  | cleaved RNA product abundance [3]: 0.85 |
| CGACATGTCCCGCTTCTTTCATTAATCCGTTAGCAAGCGTTTTGCTATATACATTTACCTTTTAAGAGGAGGAAT |  | 0.684 |  |
| ACAGACGAAGGAGCCGCAAAGAAGTTATTAAGGGATCAAAAATCCCTCAATATAAATATCTCTCACTTATTTAAA | 1.17 |  | cleaved RNA product abundance [3]: 0.804 |
| ACAGACGAAGGAGCCGCAAAGAAGTTATCAAGGGATGAATAATCCCTAAATATAAATATCTCTCACTTATTTAAA | 0.333 |  |  |

| Sequence | cleaved RNA product abundance [1] | cleaved RNA product abundance [2] | other results |
| --- | --- | --- | --- |
| CGACATGTCCCGCTTCTTTCATTAATCCGTTAGCAACTGTTTTGCTATATAAATCTACCTTTTAAGAGGAGGAAT |  | 1.49 |  |
| ACAGACGAAGGAGCCGCAAAGAAGTTATTAAGGGATGAATAATGCCTCATTATAAATATCTCTCACTTATTTAAA | 0.127 |  |  |
| ACAGACGAAGGAGCCGCCAAGAAGTTATTCAGGGATGAATAATCCCTCAATATAAATATCTCTCACTTATTTAAA | 0.506 |  |  |
| ACAGACGAAGGAGCCGCTAAGAAGTTATTAAGGTATAAATAATCCCTCAATATAAATATCTCTCACTTATTTAAA | 0.0621 |  |  |
| ACAGACGAAGGAGCCGCAAAGAAGATATTAAGAGATGAATAATCCCTCAATATAAATATCTCTCACTTATTTAAA | 0.221 |  | cleaved RNA product abundance [3]: 0.128 |
| CGACATGTCCCGCTTCTTTCATTAATCCGTTAACAACTGTTTTGCTATATACATTTATCTTTTAAGAGGAGGAAT |  | 0.236 |  |
| CGACATGTCCCGCTTCTTTCATTAATTCGTTAGCAACTGTTTTGCTATATACATTTACCCTTTAAGAGGAGGAAT |  | 0.564 |  |
| ACAGACGAAGGAGCCGCAAAGAACTTATTAAGGGATGAATTATCCCACAATATAAATATCTCTCACTTATTTAAA | 0.17 |  |  |
| ACAGACGAAGGAGCCGCAAAGAAGTTGTTAAGGAATGAATAATCCCTCAATATAAATATCTCTCACTTATTTAAA | 0.136 |  |  |
| ACAGACGAAGGAGCCGCAAAGAAGTTATTAAGGGATTAATAATCCCTCAATCTAAATATCTCTCACTTATTTAAA |  |  | cleaved RNA product abundance [3]: 0.164 |
| ACAGACGAAGGAGCCGCAAAGAAATTATGAAGGGATGAATAATCCCTCAATATAAATATCTCTCACTTATTTAAA | 0.386 |  |  |
| ACAGACGAAGGAGCCGCAAAGAAGTTATTAAGGGATGAATAAATCCTCAATATAAATATCTCTCACTTATTTAAA | 0.306 |  |  |
| CGACATGTCCCGCTTCTTTCATTAATCCGTTACCAACTGTGTTGCTATATACATTTACCTTTTAAGAGGAGGAAT |  | 0.277 |  |
| ACAGACGAAGGAGCCGCAAAGAAGTTATTAAGGGATGAATAATACCTCAAAATAAATATCTCTCACTTATTTAAA | 0.155 |  |  |
| CGACATGTCCCGCTTCTTTCATTATTCCGTTAGCAACTGTTTTGCTATATACATTTATCTTTTAAGAGGAGGAAT |  | 1.8 |  |
| ACAGACGAAGGAGCCGCAAAGAAGTTATTAAGGGATTAATAATCCCTCAATATACATATCTCTCACTTATTTAAA | 0.799 |  |  |
| ACAGACGAAGGAGCCGCAAAGAAGTTATTAAGGGATGATTAATCCCTCAAGATAAATATCTCTCACTTATTTAAA | 0.304 |  |  |
| ACAGACGAAGGAGCCGCAAAGAAGTTATTAAGGAATGAATAATCCCTCAATATAAAGATCTCTCACTTATTTAAA | 0.0766 |  |  |
| CGACATGTCCCGCTTCTTTCATTAATCCGTTAACAACTGTTTGGCTATATACATTTACCTTTTAAGAGGAGGAAT |  | 0.159 |  |
| ACAGACGAAGGAGCCGCAAATTAGTTATTAAGGGATGAATAATCCCTCTATATAAATATCTCTCACTTATTTAAA | 0.215 |  |  |
| ACAGACGAAGGAGCCGCAAAGAAATTATTAAGGGTTGAATAATCCCTCAATATAAATATCTCTCACTTATTTAAA | 0.365 |  |  |

| Sequence | cleaved RNA product abundance [1] | cleaved RNA product abundance [2] | other results |
| --- | --- | --- | --- |
| ACAGACGAAGGAGCCGCAAAGAAGTTTTTAAGGGATGAATATTCCCTCAATATAAATATCTCTCACTTATTTAAA | 0.341 |  | cleaved RNA product abundance [3]: 0.214 |
| CGACATGTCCCGCTTCTTTCATTACTCCGTTAGCAACTGTTTTGCTATAAACATTTACCTTTTAAGAGGAGGAAT |  | 0.608 |  |
| ACAGACGAAGGAGCCGCAAAGAAGTTATTAAGGGTTGAATAATCCCTCAATTTAAATATCTCTCACTTATTTAAA | 0.132 |  |  |
| CGACATGTCCCGCTTCTTTCATTAATCCGTTAGGAACTGTCTTGCTATATACATTTACCTTTTAAGAGGAGGAAT |  | 0.138 |  |
| CGACATGTCCCGCTTCTTTCATTAATCCAATAGCAACTGTTTTGCTATATACATTTACCTTTTAAGAGGAGGAAT |  | 0.553 |  |
| ACAGACGAAGGAGCCGCAAAGAAGTTATTAAGGGATGAATAAACCTTCAATATAAATATCTCTCACTTATTTAAA | 0.267 |  | cleaved RNA product abundance [3]: 0.096 |
| ACAGACGAAGGAGCCGCAAAGAAGTTATTAAGGGATGAATAATCCCTCAATATAATTACCTCTCACTTATTTAAA | 0.435 |  |  |
| CGACATGTCCCGCTTCTTTCATTAATCCGTCAGCAACTGTTTTGCTATATATATTTACCTTTTAAGAGGAGGAAT |  | 0.367 |  |
| ACAGACGAAGGAGCCGCAAAGAAGTTATTAAGGCATGAATAATCCCTCAATATAATTATCTCTCACTTATTTAAA | 0.095 |  | cleaved RNA product abundance [3]: 0.0921 |
| ACAGACGAAGGAGCCGCAAAGACGTTATTAAGGGATGAATAATCCATCAATATAAATATCTCTCACTTATTTAAA | 0.312 |  | cleaved RNA product abundance [3]: 0.156 |
| CGACATGTCCCGCTTCTTTCATTAATCCGTTAGCAACTGTTCTGCAATATACATTTACCTTTTAAGAGGAGGAAT |  | 0.103 |  |
| ACAGACGAAGGAGCCGCAACGAAGTTATTAAGGGATGAATAATCCCTCAATATAAATAACTCTCACTTATTTAAA | 0.827 |  | cleaved RNA product abundance [3]: 0.695 |
| CGACATGTCCCGCTTCTTTCATTAATCCGTTAGCAAATGTTTTCCTATATACACTTACCTTTTAAGAGGAGGAAT |  | 0.377 |  |
| CGACATGTCCCGCTTCTTTCATTAATCAGTTAGCAACTGTTTTGCTATATACATTTACCATTTAAGAGGAGGAAT |  | 0.636 |  |
| CGACATGTCCCGCTTCTTTCATTAATCCGTTAACAACTGTTTTGCTATATACATTTACTTTTTAAGAGGAGGAAT |  | 0.253 |  |
| ACAGACGAAGGAGCCGCAAAGAAGTTATTAAGGGATGAATAATCCCTGAATATAAATATCTCTCACTTATTTAAA | 0.684 |  | cleaved RNA product abundance [3]: 0.566; cleaved RNA product abundance [4]: 0.675 |
| ACAGACGAAGGAGCCGCAAAGAAGTTATTAAGGGATGAAAAATCCCTCATTATAAATATCTCTCACTTATTTAAA | 0.331 |  | cleaved RNA product abundance [3]: 0.226 |
| ACAGACGAAGGAGCCGCAAAGAAGTTATTAAGGGATGAATAACCCCTCAATCTAAATATCTCTCACTTATTTAAA | 0.0932 |  |  |
| CGACATGTCCCGCTTCTTTCATTAATCCGTTATCAACTGTTTTCCTATATACATTTACCTTTTAAGAGGAGGAAT |  | 0.292 |  |
